Data from patent US6406883.

Molecular target: human laminin (immobilized; Gibco BRL) (human) (UniProt P25391)
Test: cell-based or functional assay
[1] = scale: % of values obtained for the wildtype strain

With “Lmb on the surface of Streptococcus agalactiae (GBS) wildtype strain O90R” the adherence of FITC-labelled lmb mutant lmb-k1 to immobilized laminin, relative to wildtype strain O90R [1] was 25 and the adherence of FITC-labelled lmb mutant lmb-k2 to immobilized laminin, relative to wildtype strain O90R [1] was 25.

In the case of “Recombinant Lmb protein harboring six consecutive histidin residues at the C-terminus (amino acid 19-306, expressed from pET21a::lmb in E. coli BL21(DE3))”, the adherence of FITC-labelled O90R wildtype bacteria to laminin preincubated with recombinant Lmb (100 ug/ml) (% of the initial values) is reported as 60.
